Experiments:
Settings in all cases: Zea mays
[1] = substrate: CC(C)=CCNc1ncnc2[nH]cnc12
[2] = substrate: COc1ccc(CN)cc1
[3] = substrate: COc1ccc(CNc2ncnc3c2ncn3C2CCCCO2)cc1
[4] = substrate: COc1cccc(CN)c1
[5] = substrate: COc1cccc(CNc2ncnc3c2ncn3C2CCCCO2)c1
[6] = substrate: NCc1ccc(O)cc1
[7] = substrate: O[C@@H]1[C@H](O)[C@H](O)CO[C@H]1n1cnc2c(NCc3ccccc3)ncnc21
[8] = substrate: Oc1ccc(CNc2ncnc3c2ncn3C2CCCCO2)cc1
[9] = substrate: Oc1cccc(CNc2ncnc3c2ncn3C2CCCCO2)c1
[10] = substrate: Oc1cccc(CNc2ncnc3nc[nH]c23)c1
[11] = substrate: c1ccc(CNc2ncnc3[nH]cnc23)cc1
[12] = substrate: c1ccc(CNc2ncnc3c2ncn3C2CCCCO2)cc1
[13] = molecular target: 6-(4-hydroxybenzylamino)purine
[14] = substrate: CC(C)=CCNc1ncnc2[nH]cnc12; remark: listed apart in the source
[15] = substrate: Oc1ccc(CNc2ncnc3c2ncn3C2CCCCO2)cc1; remark: listed apart in the source
[16] = substrate: Oc1cccc(CNc2ncnc3c2ncn3C2CCCCO2)c1; remark: listed apart in the source
[17] = substrate: Oc1cccc(CNc2ncnc3nc[nH]c23)c1; remark: listed apart in the source
[18] = substrate: c1ccc(CNc2ncnc3[nH]cnc23)cc1; remark: listed apart in the source
[19] = substrate: c1ccc(CNc2ncnc3c2ncn3C2CCCCO2)cc1; remark: listed apart in the source
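For Km in this document: zea mays CKX1 produced in Pichia pastoris, enzyme activity followed as aldehyde formation detected with the 4-aminophenol method.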

B1: Cytokinin dehydrogenase 1 (Zea mays), Q9T0N8 (protein)
chain: MAVVYYLLLAGLIACSHALAAGTPALGDDRGRPWPASLAALALDGKLRTDSNATAAASTDFGNITSALPAAVLYPSSTGDLVALLSAANSTPGWPYTIAFRGRGHSLMGQAFAPGGVVVNMASLGDAAAPPRINVSADGRYVDAGGEQVWIDVLRASLARGVAPRSWNDYLYLTVGGTLSNAGISGQAFRHGPQISNVLEMDVITGHGEMVTCSKQLNADLFDAVLGGLGQFGVITRARIAVEPAPARARWVRFVYTDFAAFSADQERLTAPRPGGGGASFGPMSYVEGSVFVNQSLATDLANTGFFTDADVARIVALAGERNATTVYSIEATLNYDNATAAAAAVDQELASVLGTLSYVEGFAFQRDVAYAAFLDRVHGEEVALNKLGLWRVPHPWLNMFVPRSRIADFDRGVFKGILQGTDIVGPLIVYPLNKSMWDDGMSAATPSEDVFYAVSLLFSSVAPNDLARLQEQNRRILRFCDLAGIQYKTYLARHTDRSDWVRHFGAAKWNRFVEMKNKYDPKRLLSPGQDIFN
[1]
  Km: 1.8 µM
  kcat: 0.208 s⁻¹
[2]
  kcat: 0.476 s⁻¹
[3]
  kcat: 0.256 s⁻¹
[4]
  kcat: 0.145 s⁻¹
[5]
  kcat: 0.006 s⁻¹
[6]
  Km: 5.5 µM
  kcat: 0.871 s⁻¹
[7]
  kcat: 0.218 s⁻¹
[8]
  Km: 33.8 µM
  kcat: 0.195 s⁻¹
[9]
  Km: 125 µM
  kcat: 0.032 s⁻¹
[10]
  Km: 24.4 µM
  kcat: 0.244 s⁻¹
[11]
  Km: 29.6 µM
  kcat: 0.225 s⁻¹
[12]
  Km: 98.9 µM
  kcat: 0.069 s⁻¹
[13]
  kcat/Km: 0.158
[14]
  kcat/Km: 0.116
[15]
  kcat/Km: 5800 M⁻¹ s⁻¹
[16]
  kcat/Km: 0.0003
[17]
  kcat/Km: 0.01
[18]
  kcat/Km: 0.0076
[19]
  kcat/Km: 0.0007
